Results as given in PMC3282741, “Independent Recruitment of a Flavin-Dependent Monooxygenase for Safe Accumulation of Sequestered Pyrrolizidine Alkaloids in Grasshoppers and Moths” (PLoS ONE, 2012).

Legend:
[1] = tested on: C[C@H]1C(=O)O[C@@H]2CCN3CC=C(COC(=O)[C@](C)(O)[C@]1(C)O)[C@H]23; experiment: purified protein; format: biochemical, Zonocerus variegatus; conditions: 0.2 mM NADPH, 100 mM glycine/NaOH pH 9, 37°C
Source text: (§1) photometric or radioassay N-oxygenation, initial rates on ZvPNO

[2] = tested on: CO[C@H](C)[C@](O)(C(=O)OCC1=CCN2CC[C@H](O)[C@@H]12)C(C)C; experiment: purified protein; format: biochemical, Zonocerus variegatus; conditions: 0.2 mM NADPH, 100 mM glycine/NaOH pH 9, 37°C
Source text: as §1

[3] = tested on: C/C=C1/C[C@@H](C)[C@@](C)(O)C(=O)OCC2=CCN3CC[C@@H](OC1=O)[C@@H]23; experiment: purified protein; format: biochemical, Zonocerus variegatus; conditions: 0.2 mM NADPH, 100 mM glycine/NaOH pH 9, 37°C
Source text: as §1

[4] = tested on: CN1[C@@H]2CC[C@H]1CC(OC(=O)C(CO)c1ccccc1)C2; experiment: purified protein; conditions: 0.2 mM NADPH, 100 mM glycine/NaOH pH 9, 37°C
[5] = target: T1, ZvPNO (Zonocerus variegatus, UniProt L0N8S9); format: biochemical; conditions: 0.2 mM NADPH; 100 mM glycine/NaOH pH 9; 37°C
T1 construct: gene pno; full ORF (1242 bp, 47,793 Da subunit), no signal peptide predicted, C-terminal His6, pET28a, E. coli BL21(DE3), Ni-NTA; homodimer (91,200 Da)
Source text: as §1

Substance	Km [1] [µM]	Vmax [1] [µmol/min/mg]	kcat [1] [s⁻¹]	kcat/Km [1] [M⁻¹ s⁻¹]	Km [2] [µM]	Vmax [2] [µmol/min/mg]	kcat [2] [s⁻¹]	kcat/Km [2] [M⁻¹ s⁻¹]	Km [3] [µM]	Vmax [3] [µmol/min/mg]	kcat [3] [s⁻¹]	kcat/Km [3] [M⁻¹ s⁻¹]	Km [4] [µM]	Vmax [4] [µmol/min/mg]	kcat [4] [s⁻¹]	kcat/Km [4] [M⁻¹ s⁻¹]	Km [5] [µM]
ZvPNO (Zonocerus variegatus)	11.93 ± 0.76	1.2	0.96	80500	263.89 ± 10.06	0.149	0.12	454	1.08 ± 0.07	1.24	0.99	917000	9.83 ± 1.04	0.461	0.37	37600	–
phalaenopsine	–	–	–	–	–	–	–	–	–	–	–	–	–	–	–	–	838 ± 77.4
